From article PMC12828747, “Nanobodies against Clostridioides difficile CDTb provide a toolkit for potent toxin neutralization and highly sensitive quantitation” (The Journal of Biological Chemistry, 2025)
Where two headings read alike, the source gives them in different places.

T1: activated monomeric CDTb (75 kDa-activated monomer) (Clostridioides difficile)
T1 construct: source: recombinant pro-CDTb trypsinized in vitro, purified (SEC)
T1 chain: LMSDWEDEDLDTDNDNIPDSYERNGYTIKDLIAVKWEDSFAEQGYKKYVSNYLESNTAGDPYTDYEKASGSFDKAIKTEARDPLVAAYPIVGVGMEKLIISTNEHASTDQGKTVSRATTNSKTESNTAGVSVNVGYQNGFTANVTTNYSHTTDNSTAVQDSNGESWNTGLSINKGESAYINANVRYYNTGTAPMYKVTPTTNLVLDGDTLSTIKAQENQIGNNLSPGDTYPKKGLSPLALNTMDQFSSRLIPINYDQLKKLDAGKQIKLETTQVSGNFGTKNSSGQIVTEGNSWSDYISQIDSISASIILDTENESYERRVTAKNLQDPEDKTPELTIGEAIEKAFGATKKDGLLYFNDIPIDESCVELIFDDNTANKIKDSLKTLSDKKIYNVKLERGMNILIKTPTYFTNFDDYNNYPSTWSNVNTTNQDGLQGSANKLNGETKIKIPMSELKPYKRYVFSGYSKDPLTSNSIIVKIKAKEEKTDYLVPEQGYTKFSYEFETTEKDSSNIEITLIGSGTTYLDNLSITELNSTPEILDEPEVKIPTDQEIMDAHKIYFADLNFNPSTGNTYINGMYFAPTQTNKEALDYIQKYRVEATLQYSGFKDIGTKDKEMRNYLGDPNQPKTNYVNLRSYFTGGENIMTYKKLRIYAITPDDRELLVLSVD

T2: heptameric CDTb (Clostridioides difficile, strain not …)
T2 construct: the ELISA text says only heptameric CDTb; also called CDTb heptamer; CDTb oligomers
T2 chain: T1 chain

T3: CDTb_(D1–D4) monomer (residues 43–876) (Clostridioides difficile, strain not …)
T3 construct: also called full-length (pro) CDTb; pro-CDTb
T3 chain: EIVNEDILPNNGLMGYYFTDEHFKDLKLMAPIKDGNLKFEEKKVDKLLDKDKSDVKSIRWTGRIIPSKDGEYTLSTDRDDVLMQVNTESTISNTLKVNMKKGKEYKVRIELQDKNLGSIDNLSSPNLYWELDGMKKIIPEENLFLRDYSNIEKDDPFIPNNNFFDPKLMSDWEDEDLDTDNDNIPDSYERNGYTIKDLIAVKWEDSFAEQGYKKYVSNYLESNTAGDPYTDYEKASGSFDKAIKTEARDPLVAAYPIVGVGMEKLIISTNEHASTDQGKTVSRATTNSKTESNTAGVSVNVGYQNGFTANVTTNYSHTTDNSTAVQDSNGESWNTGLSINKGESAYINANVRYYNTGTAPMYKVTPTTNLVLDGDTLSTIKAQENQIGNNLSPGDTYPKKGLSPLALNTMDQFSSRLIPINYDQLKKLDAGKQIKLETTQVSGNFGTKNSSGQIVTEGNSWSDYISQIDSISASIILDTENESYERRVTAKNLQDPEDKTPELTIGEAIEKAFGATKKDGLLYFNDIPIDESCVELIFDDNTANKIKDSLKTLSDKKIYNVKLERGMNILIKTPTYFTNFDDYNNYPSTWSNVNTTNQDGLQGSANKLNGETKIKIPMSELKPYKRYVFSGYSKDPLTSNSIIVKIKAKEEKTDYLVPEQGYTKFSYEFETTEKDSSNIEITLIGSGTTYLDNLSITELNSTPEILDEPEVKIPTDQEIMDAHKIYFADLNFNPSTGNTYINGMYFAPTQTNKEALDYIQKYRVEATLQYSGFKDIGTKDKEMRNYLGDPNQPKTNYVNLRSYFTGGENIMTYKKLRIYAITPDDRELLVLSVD

T4: CDTbD3′ (Clostridioides difficile, strain not …)
T4 chain: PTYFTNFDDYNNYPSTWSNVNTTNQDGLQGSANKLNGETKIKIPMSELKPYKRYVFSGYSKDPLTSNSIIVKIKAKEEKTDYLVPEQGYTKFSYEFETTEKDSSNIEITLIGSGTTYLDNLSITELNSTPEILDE

B1: Nb A9 (VHH)
VHH: QVQLQESGGGLVQPGGSLRLSCTSSTNMLEFTAVAWWRQAPGKQRDLLAVITRAGVPNYADSKGRFAISRDNAKNTVDLLINTLEPDDTAVYTCNARTSGNINYWGQGTQVTVSS
notes: also called C1A9; source: Expi293F, transfected, purified from supernatant (TALON resin)
B2: Nb C6 (VHH)
VHH: QVQLQESGGGLVEPGGSLRLSCVASGIVVASSTMSWYRQAPGKQRELVAQIFSGGNTNYRDSVRGRFTISKDNAKNTAYLQMDNLEPDDTAVYYCYARGFWGQGTQVTVSS
notes: also called C1C6; source: Expi293F, transfected, purified from supernatant (TALON resin)
B3: C1G1 (VHH)
VHH: QVQLQESGGGLVQPGGSLTLSCAASGSIGSGSVMSWYRQAPGKERELVAQESGGRLRSYAKSVMGRFTISRDNSNNTVTLQMNNLKTDDTAIYYCHLVQFSGRYWGHGTQVTGS
B4: Nb G2 (VHH)
VHH: QVQLQESGGGLVQPGGSLTLSCKASGIVFSTHTLAWYRQAPGKHRNVLAVITSAGIPNYDTDLKGRFTISRDNAKNTVYLQMNSLEPEDTAVYYCNARGPHPTVTGTTANYWGQGTQVTVSS
notes: also called C1G2; source: Expi293F, transfected, purified from supernatant (TALON resin)
B5: Nb H8 (VHH)
VHH: QVQLQESGGGLVQPGRSLRLSCEASDFSLNTFGAGWFRQVPGKEREGVSCISPSNSSTYYADSVKGRFTISRDNAKNTIYLQMNSLKPEDTGVYFCAARPITSAQALCTLLVSDSFTSWGQGTQVTVSS
notes: also called C1H8; source: Expi293F, transfected, purified from supernatant (TALON resin)
B6: Nb H12 (VHH)
VHH: QVQLQESGGGLVQPGGSLRLSCAASGDIFSFYTMGWYRQAPGKQRELVATITSPGTTNYADSVKGRFTISRDNAKNMVYLQMTSLKPEDTAVYYCNADRILTTDPQFKYWGQGTQVTVSS
notes: also called C1H12; source: Expi293F, transfected, purified from supernatant (TALON resin)

Legend:
[1] = biological target: T5, CDTb_(D2–D3′) (210–749) (Clostridioides difficile, strain not …, UniProt O32739); assay: SPR; […] (10 mM HEPES pH 7.4, 150 mM NaCl, 0.05% Tween-20) with 0.5 mg/ml BSA; […]; details: both partners purified
[2] = biological target: T6, native CDTb protein in cecal contents of mice infected with C. difficile R20291 (Clostridioides difficile R20291, UniProt A0A9R0BM17, strain); assay: ELISA; sandwich ELISA on cecal material of mice infected with R20291 (diluted to 10 mg/ml in PBS-T + 2% BSA): native CDTb bound by the coated capture Nb; details: one partner purified
T6 construct: CDTb made by C. difficile R20291 during infection of mice; source: endogenous, C. difficile R20291, in cecal material of infected mice

[3] = biological target: T1, activated monomeric CDTb (75 …); assay: ELISA; sandwich ELISA: nonbiotinylated capture Nb coated (200 ng/well), purified CDTb (activated monomer or heptameric sample) in PBS-T + 2% BSA, biotinylated detection Nb (50 ng/well), streptavidin-HRP; room temperature; details: both partners purified
[4] = biological target: T2, heptameric CDTb; assay: as above; details: both partners purified
[5] = biological target: T7, CDTbD4 (760–876) (Clostridioides difficile, strain not …, UniProt O32739); assay: SPR; Carterra LSA^XT, SAHC30M chip, 25 °C; biotinylated Nbs captured at eight densities; CDTb constructs injected at 0.3–300 nM (fourfold dilutions) without regeneration; HBS-T (10 mM HEPES pH 7.4, 150 mM NaCl, 0.05% Tween-20) with 0.5 mg/ml BSA; one-to-one kinetics model; details: both partners purified
T7 construct: also called domain 4

[6] = biological target: T3, CDTb_(D1–D4) monomer (residues 43–876); assay: as above; details: both partners purified
[7] = biological target: T4, CDTbD3′; assay: as above; details: both partners purified
[8] = biological target: T6, native CDTb protein in cecal contents …; assay: ELISA; sandwich ELISA on cecal material of mice infected with R20291: biotinylated detection Nb on the captured native CDTb; details: one partner purified
[9] = biological target: T4, CDTbD3′; assay: SPR; Carterra LSA^XT, SAHC30M chip, 25 °C; biotinylated Nbs captured at eight densities; CDTb constructs injected at 0.3–300 nM (fourfold dilutions) without regeneration; HBS-T (10 mM HEPES pH 7.4, 150 mM NaCl, 0.05% Tween-20) with 0.5 mg/ml BSA; one-to-one kinetics model; details: both partners purified
[10] = biological target: T3, CDTb_(D1–D4) monomer (residues 43–876)
[11] = biological target: T4, CDTbD3′
[12] = biological target: T5, CDTb_(D2–D3′) (210–749); assay: SPR; […] (10 mM HEPES pH 7.4, 150 mM NaCl, 0.05% Tween-20) with 0.5 mg/ml BSA; […]; details: both partners purified; remark: listed apart in the source
[13] = biological target: T3, CDTb_(D1–D4) monomer (residues 43–876); assay: SPR; Carterra LSA^XT, SAHC30M chip, 25 °C; biotinylated Nbs captured at eight densities; CDTb constructs injected at 0.3–300 nM (fourfold dilutions) without regeneration; HBS-T (10 mM HEPES pH 7.4, 150 mM NaCl, 0.05% Tween-20) with 0.5 mg/ml BSA; one-to-one kinetics model; details: both partners purified
[14] = biological target: T7, CDTbD4 (760–876); assay: as above; details: both partners purified; remark: listed apart in the source
[15] = biological target: T1, activated monomeric CDTb (75 …); assay: cell-based or functional assay

Binder | Kd [1] [nM] | koff [1] [s⁻¹] | kon [1] [M⁻¹ s⁻¹] | binding result [2] | binding result [3] | binding result [5] | Kd [6] [nM] | koff [6] [s⁻¹] | kon [6] [M⁻¹ s⁻¹] | Kd [7] [nM] | koff [7] [s⁻¹] | kon [7] [M⁻¹ s⁻¹] | binding result [8] | binding result [9] | binding result [12] | Kd [14] [nM] | koff [14] [s⁻¹] | kon [14] [M⁻¹ s⁻¹] | also measured
B1 | 0.02 | 1.4e-05 | 710000 | binds | binds | no binding | 0.024 | 3.2e-05 | 1e+06 | ≤ 0.031 | ≤ 1e-05 | 330000 | – | – | – | – | – | – | binding result [4]: binds
B2 | 0.035 | 4.4e-05 | 1.3e+06 | – | binds | no binding | 0.018 | 1.4e-05 | 790000 | – | – | – | binds | no binding | – | – | – | – | –
B3 | – | – | – | – | – | – | – | – | – | – | – | – | – | – | – | – | – | – | binding result [10]: binds; binding result [11]: binds
B4 | ≤ 0.022 | ≤ 1e-05 | 480000 | binds | binds | no binding | ≤ 0.029 | ≤ 1e-05 | 380000 | 0.18 | 4.1e-05 | 240000 | – | – | – | – | – | – | –
B5 | – | – | – | – | binds | – | 1.6 | 0.00089 | 560000 | – | – | – | – | no binding | no binding | 0.63 | 0.00083 | 1.4e+06 | Kd [13]: 1.9 nM
B6 | – | – | – | – | – | – | 0.05 | 6.7e-05 | 1.4e+06 | – | – | – | binds | no binding | no binding | 0.042 | 0.00013 | 3.1e+06 | EC50 of neutralization of CDT-induced rounding of Vero-GFP cells (1 nM CDTa + 7 nM activated monomeric CDTb, Nb 0.6–100 nM, 3 h postintoxication) [15]: ~6 nM
